According to doi:10.1101/2024.08.22.609182 (bioRxiv, 2024):

Experiments:
[1] = target: adenylate kinase 2 (AK2), recombinant human (human, UniProt P54819 1-239); assay: SEC
SEC = target: the molecule itself; assay: SEC

B1: AIFM1 ΔR201 (disease-related variant) (domain or fragment)
chain: LGLTPEQKQKKAALSASEGEEVPQDKAPSHVPFLLIGGGTAAFAAARSIRARDPGARVLIVSEDPELPYMRPPLSKELWFSDDPNVTKTLRFKQWNGKESIYFQPPSFYVSAQDLPHIENGGVAVLTGKKVVQLDVRDNMVKLNDGSQITYEKCLIATGGTPRSLSAIDRAGAEVKSRTTLFRKIGDFRSLEKISREVKSITIIGGGFLGSELACALGRKARALGTEVIQLFPEKGNMGKILPEYLSNWTMEKVRREGVKVMPNAIVQSVGVSSGKLLIKLKDGRKVETDHIVAAVGLEPNVELAKTGGLEIDSDFGGFRVNAELQARSNIWVAGDAACFYDIKLGRRRVEHHDHAVVSGRLAGENMTGAAKPYWHQSMFWSDLGPDVGYEAIGLVDSSLPTVGVFAKATAQDNPKSATEQSGTGIRSESETESEASEITIPPSTPAVPQAPVQGEDYGKGVIFYLRDKVVVGIVLWNIFNRMPIARKIIKDGEQHEDLNEVAKLFNIHED
- binding result [1]: binds
- stoichiometry N (SEC): 2
